According to the supplement of paper PMC7125110:
± gives the standard error. For part of these data: This sample holds only a part of the variants without activity.

B1: glmS ribozyme (parent)
chain: AUAAAAGCGCCAGAACUACAGAAAUGUAGUUGACGAGGAGGAGGUUUAUCGAAUUUUCGGCGGAUGCCUCCAAA

Key:
Settings in all cases: with glucosamine-6-phosphate
glucosamine-6-phosphate [1] = variants of: B1; assay: kcat; higher = faster cleavage; RNA array
In short: (§1)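 Sequenced MiSeq chips were the platform: E. coli RNA polymerase transcribed barcoded ribozyme variants on them in situ, and a hybridised Cy3 probe tracked these at 37 °C. After glucosamine-6-phosphate (40 μM to 10 mM) in HEPES/KCl/Mg(OAc)2 buffer was flowed in, tiles were imaged over ~14 h. Signals normalised to baseline and to non-cleaving reference variants were reduced to per-tile medians and fit to one- or two-exponential decays to obtain kobs. kcat and KM were derived through weighted Michaelis–Menten fits across concentrations.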

glucosamine-6-phosphate [2] = variants of: B1; assay: KM; higher = weaker cofactor use; RNA array
In short: as §1

glucosamine-6-phosphate [3] = variants of: B1; assay: self-cleavage kobs at 40 uM GlcN6P; higher = faster cleavage; RNA array
In short: as §1

glucosamine-6-phosphate [4] = variants of: B1; assay: self-cleavage kobs at 160 uM GlcN6P; higher = faster cleavage; RNA array
In short: as §1

glucosamine-6-phosphate [5] = variants of: B1; assay: self-cleavage kobs at 640 uM GlcN6P; higher = faster cleavage; RNA array
In short: as §1

glucosamine-6-phosphate [6] = variants of: B1; assay: self-cleavage kobs at 2500 uM GlcN6P; higher = faster cleavage; RNA array
In short: as §1

glucosamine-6-phosphate [7] = variants of: B1; assay: self-cleavage kobs at 10000 uM GlcN6P; higher = faster cleavage; RNA array
In short: as §1

C16U C67A
kcat (glucosamine-6-phosphate [1]): 0.00194 ± 0.0004 s⁻¹ | KM (glucosamine-6-phosphate [2]): 360 ± 110 µM | self-cleavage kobs at 40 uM GlcN6P (glucosamine-6-phosphate [3]): 0.000212 ± 2.2e-05 s⁻¹ | self-cleavage kobs at 160 uM GlcN6P (glucosamine-6-phosphate [4]): 0.0005 ± 6.7e-05 s⁻¹ | self-cleavage kobs at 640 uM GlcN6P (glucosamine-6-phosphate [5]): 0.00138 ± 0.00017 s⁻¹ | self-cleavage kobs at 2500 uM GlcN6P (glucosamine-6-phosphate [6]): 0.00166 ± 0.0003 s⁻¹

G40C A64G
kcat (glucosamine-6-phosphate [1]): 0.00107 ± 0.00027 s⁻¹ | self-cleavage kobs at 160 uM GlcN6P (glucosamine-6-phosphate [4]): 4.29e-05 ± 1.9e-05 s⁻¹ | self-cleavage kobs at 2500 uM GlcN6P (glucosamine-6-phosphate [6]): 0.000837 ± 0.00017 s⁻¹ | self-cleavage kobs at 10000 uM GlcN6P (glucosamine-6-phosphate [7]): 0.000811 ± 9.3e-05 s⁻¹

A39U G44C
kcat (glucosamine-6-phosphate [1]): 0.000268 ± 4.5e-05 s⁻¹ | KM (glucosamine-6-phosphate [2]): 1920 ± 770 µM | self-cleavage kobs at 640 uM GlcN6P (glucosamine-6-phosphate [5]): 6.01e-05 ± 1.7e-05 s⁻¹ | self-cleavage kobs at 2500 uM GlcN6P (glucosamine-6-phosphate [6]): 0.0002 ± 3.9e-05 s⁻¹ | self-cleavage kobs at 10000 uM GlcN6P (glucosamine-6-phosphate [7]): 0.000212 ± 3.2e-05 s⁻¹

C67A
kcat (glucosamine-6-phosphate [1]): 0.0168 ± 0.0027 s⁻¹ | KM (glucosamine-6-phosphate [2]): 1730 ± 380 µM | self-cleavage kobs at 40 uM GlcN6P (glucosamine-6-phosphate [3]): 0.000434 ± 1.5e-05 s⁻¹ | self-cleavage kobs at 160 uM GlcN6P (glucosamine-6-phosphate [4]): 0.00132 ± 8.4e-05 s⁻¹ | self-cleavage kobs at 640 uM GlcN6P (glucosamine-6-phosphate [5]): 0.004 ± 0.00015 s⁻¹ | self-cleavage kobs at 2500 uM GlcN6P (glucosamine-6-phosphate [6]): 0.0101 ± 0.00044 s⁻¹ | self-cleavage kobs at 10000 uM GlcN6P (glucosamine-6-phosphate [7]): 0.0155 ± 0.00076 s⁻¹

A39G C50A
kcat (glucosamine-6-phosphate [1]): 3.27e-05 ± 5.7e-06 s⁻¹

G51U U69G
kcat (glucosamine-6-phosphate [1]): 4.26e-05 ± 1.5e-05 s⁻¹ | self-cleavage kobs at 160 uM GlcN6P (glucosamine-6-phosphate [4]): 5.17e-05 ± 1.2e-05 s⁻¹ | self-cleavage kobs at 640 uM GlcN6P (glucosamine-6-phosphate [5]): 5.57e-05 ± 1.3e-05 s⁻¹ | self-cleavage kobs at 2500 uM GlcN6P (glucosamine-6-phosphate [6]): 7e-05 ± 1e-05 s⁻¹ | self-cleavage kobs at 10000 uM GlcN6P (glucosamine-6-phosphate [7]): 1.72e-05 ± 8.1e-06 s⁻¹

U54C U65G
kcat (glucosamine-6-phosphate [1]): 0.00585 ± 0.0014 s⁻¹ | KM (glucosamine-6-phosphate [2]): 5410 ± 1800 µM | self-cleavage kobs at 40 uM GlcN6P (glucosamine-6-phosphate [3]): 5.43e-05 ± 8.6e-06 s⁻¹ | self-cleavage kobs at 160 uM GlcN6P (glucosamine-6-phosphate [4]): 0.000122 ± 2.6e-05 s⁻¹ | self-cleavage kobs at 640 uM GlcN6P (glucosamine-6-phosphate [5]): 0.000671 ± 0.00011 s⁻¹ | self-cleavage kobs at 2500 uM GlcN6P (glucosamine-6-phosphate [6]): 0.00207 ± 0.00032 s⁻¹ | self-cleavage kobs at 10000 uM GlcN6P (glucosamine-6-phosphate [7]): 0.00371 ± 0.00042 s⁻¹

A39U C58G
kcat (glucosamine-6-phosphate [1]): 0.000106 ± 3.3e-06 s⁻¹ | KM (glucosamine-6-phosphate [2]): 9290 ± 520 µM | self-cleavage kobs at 2500 uM GlcN6P (glucosamine-6-phosphate [6]): 2.25e-05 ± 1e-05 s⁻¹ | self-cleavage kobs at 10000 uM GlcN6P (glucosamine-6-phosphate [7]): 5.48e-05 ± 1.2e-05 s⁻¹

G59U C67G
kcat (glucosamine-6-phosphate [1]): 1.65e-05 ± 6.4e-06 s⁻¹

G59U A64G
kcat (glucosamine-6-phosphate [1]): 6.46e-05 ± 1.1e-05 s⁻¹ | self-cleavage kobs at 40 uM GlcN6P (glucosamine-6-phosphate [3]): < 1e-05 s⁻¹ | self-cleavage kobs at 2500 uM GlcN6P (glucosamine-6-phosphate [6]): 7.94e-05 ± 2.1e-05 s⁻¹ | self-cleavage kobs at 10000 uM GlcN6P (glucosamine-6-phosphate [7]): 5.92e-05 ± 9.3e-06 s⁻¹

U47A C68G
kcat (glucosamine-6-phosphate [1]): 4.89e-05 ± 9.9e-06 s⁻¹ | self-cleavage kobs at 640 uM GlcN6P (glucosamine-6-phosphate [5]): 4.99e-05 ± 1.2e-05 s⁻¹ | self-cleavage kobs at 2500 uM GlcN6P (glucosamine-6-phosphate [6]): 6.81e-05 ± 1.2e-05 s⁻¹ | self-cleavage kobs at 10000 uM GlcN6P (glucosamine-6-phosphate [7]): 3.56e-05 ± 9.2e-06 s⁻¹

A12C A39U
kcat (glucosamine-6-phosphate [1]): 0.0119 ± 0.0024 s⁻¹ | KM (glucosamine-6-phosphate [2]): 2230 ± 600 µM | self-cleavage kobs at 40 uM GlcN6P (glucosamine-6-phosphate [3]): 0.000239 ± 1.9e-05 s⁻¹ | self-cleavage kobs at 160 uM GlcN6P (glucosamine-6-phosphate [4]): 0.000824 ± 9.8e-05 s⁻¹ | self-cleavage kobs at 640 uM GlcN6P (glucosamine-6-phosphate [5]): 0.00219 ± 0.00025 s⁻¹ | self-cleavage kobs at 2500 uM GlcN6P (glucosamine-6-phosphate [6]): 0.00569 ± 0.00066 s⁻¹ | self-cleavage kobs at 10000 uM GlcN6P (glucosamine-6-phosphate [7]): 0.0112 ± 0.0011 s⁻¹

A39C C58A
kcat (glucosamine-6-phosphate [1]): 0.000217 ± 9.9e-05 s⁻¹ | self-cleavage kobs at 40 uM GlcN6P (glucosamine-6-phosphate [3]): < 1e-05 s⁻¹ | self-cleavage kobs at 10000 uM GlcN6P (glucosamine-6-phosphate [7]): 5.19e-05 ± 9.6e-06 s⁻¹

G44C U55G
kcat (glucosamine-6-phosphate [1]): 5.43e-05 ± 1.8e-05 s⁻¹ | self-cleavage kobs at 2500 uM GlcN6P (glucosamine-6-phosphate [6]): 5.66e-05 ± 2.2e-05 s⁻¹ | self-cleavage kobs at 10000 uM GlcN6P (glucosamine-6-phosphate [7]): 4.43e-05 ± 2.1e-05 s⁻¹

A12C C71G
kcat (glucosamine-6-phosphate [1]): 0.000645 ± 0.00023 s⁻¹ | self-cleavage kobs at 40 uM GlcN6P (glucosamine-6-phosphate [3]): 4.39e-05 ± 8.5e-06 s⁻¹ | self-cleavage kobs at 160 uM GlcN6P (glucosamine-6-phosphate [4]): 0.000153 ± 2.4e-05 s⁻¹ | self-cleavage kobs at 640 uM GlcN6P (glucosamine-6-phosphate [5]): 0.000264 ± 3e-05 s⁻¹ | self-cleavage kobs at 2500 uM GlcN6P (glucosamine-6-phosphate [6]): 0.000424 ± 7.3e-05 s⁻¹ | self-cleavage kobs at 10000 uM GlcN6P (glucosamine-6-phosphate [7]): 0.00109 ± 0.00015 s⁻¹

A64G G66C
kcat (glucosamine-6-phosphate [1]): 0.00291 ± 0.001 s⁻¹ | self-cleavage kobs at 40 uM GlcN6P (glucosamine-6-phosphate [3]): 4.68e-05 ± 1.7e-05 s⁻¹ | self-cleavage kobs at 640 uM GlcN6P (glucosamine-6-phosphate [5]): 0.00057 ± 0.00011 s⁻¹ | self-cleavage kobs at 2500 uM GlcN6P (glucosamine-6-phosphate [6]): 0.00103 ± 0.00022 s⁻¹ | self-cleavage kobs at 10000 uM GlcN6P (glucosamine-6-phosphate [7]): 0.0027 ± 0.00051 s⁻¹
